To fix the notation:
B1: HDV Ribozyme (parent)
chain: GGCCGGCAUGGUCCCAGCCUCCUCGCUGGCGCCGGCUGGGCAACAUUCCGAGGGGACCGUCCCCUCGGUAAUGGCGAAUGGGACCCA

Variants of B1 are the subject of this series. The series can be described thus: self-cleavage, relative activity (ratio to wild type); higher = more cleavage; co-transcriptional.
GGCCGACAUGGUCCGAGCCUCCUCGCUGGCGCCGGCUGGGCAACAUUCCGAGGGGACCGUCCCCUCGGUAAUGGCGAAUGGGACCCA [G6A C15G]: the self-cleavage turned out to be 0.133.
Next, GGCCUGCAUGGUCCCAGCCUCCUCGCUGGCGCCGGCUGGGCAACAUUCCGAGGGGACCGUCCCCCCGGUAAUGGCGAAUGGGACCCA [G5U U65C]: 0.723.
Turning to GGCCUGCAUGGUCCCAGCCUCCUCGCUGGCGCCGCCUGGGCAACAUUCCGAGGGGACCGUCCCCUCGGUAAUGGCGAAUGGGACCCA [G5U G35C], the self-cleavage turned out to be 0.
For the variant GGCCUGCAUGGUCCCAGCCUCCUCGCUGGCGCCGGCUGGGCAACAUACCGAGGGGACCGUCCCCUCGGUAAUGGCGAAUGGGACCCA [G5U U47A], the self-cleavage came out at 0.378.
Next, GGCCUGCAUGGUCCCAGCCUCCUCGCUGGCGCCGGCUGGGCAACAUUCCGAGGGGACCGUCCCCUCGGUAAUAGCGAAUGGGACCCA [G5U G73A]: 0.0665; GGCCUGCAUGGUCCCAGCCUCCUCGCUGGCGCCGGCUGGGCAACAUUCCGAGGGGACCGUCCCCUCGGUAAUUGCGAAUGGGACCCA [G5U G73U]: 0.122; GGCCGAUAUGGUCCCAGCCUCCUCGCUGGCGCCGGCUGGGCAACAUUCCGAGGGGACCGUCCCCUCGGUAAUGGCGAAUGGGACCCA [G6A C7U]: 0.283.
Turning to GGCCGACAUGGUCCCAGCCUCCUCGCUGGCGACGGCUGGGCAACAUUCCGAGGGGACCGUCCCCUCGGUAAUGGCGAAUGGGACCCA [G6A C32A], the self-cleavage is 0.277.
Next, GGCCUGCAUGGUCCCAGCCUCCUCGCUGGCGCCGGCUGGGCAACAUUUCGAGGGGACCGUCCCCUCGGUAAUGGCGAAUGGGACCCA [G5U C48U]: 0.346.
Next, GGCCUGCAUGGUCCCAGCCUCCUCGCUGACGCCGGCUGGGCAACAUUCCGAGGGGACCGUCCCCUCGGUAAUGGCGAAUGGGACCCA [G5U G29A]: 0.285.
Next, GGCCGACAUGGUCCCAGCCUCCUCGAUGGCGCCGGCUGGGCAACAUUCCGAGGGGACCGUCCCCUCGGUAAUGGCGAAUGGGACCCA [G6A C26A]: 0.888; GGCCUGCAUGGUCCCAGCCACCUCGCUGGCGCCGGCUGGGCAACAUUCCGAGGGGACCGUCCCCUCGGUAAUGGCGAAUGGGACCCA [G5U U20A]: 0; GGCCGACAUGGUCCCAGCCUCCUCGCUGGCGCCGGCUGGGCAACAUUCCGAGGGGACCGUCCUCUCGGUAAUGGCGAAUGGGACCCA [G6A C63U]: 0.743.
Regarding GGCCGACAUGGUCCCAGCCUCCUCGCUGGCGCCGGCUGGGCAACAUUCCGAGGGGACCGUCCGCUCGGUAAUGGCGAAUGGGACCCA [G6A C63G], the self-cleavage stood at 0.601.
In the case of GGCCGACAUGGUGCCAGCCUCCUCGCUGGCGCCGGCUGGGCAACAUUCCGAGGGGACCGUCCCCUCGGUAAUGGCGAAUGGGACCCA [G6A C13G], the self-cleavage is 0.
Next, GGCCUGCAUGGUCCCAGCCUCCUCGCUGGCGCCGGCUGGGCAACAUUCCGAGGGGACCGUCCCCUCGGUAAUGGCGAAUGGGACGCA [G5U C85G]: 0.289; GGCCUGCAUGGUCCCAGCCUCCUCGCUGGCGCCGGCUGGGCAACAUUCCGAGGUGACCGUCCCCUCGGUAAUGGCGAAUGGGACCCA [G5U G54U]: 0.612; GGCCUGCAUGGUCCCAGCCUCCUCGCUGGCGCCGGCUGGGCAACAUUCCGAGGGGACCUUCCCCUCGGUAAUGGCGAAUGGGACCCA [G5U G59U]: 0.633.
With GGCCUGCAUGGUCCCAGCCUCCCCGCUGGCGCCGGCUGGGCAACAUUCCGAGGGGACCGUCCCCUCGGUAAUGGCGAAUGGGACCCA [G5U U23C], the self-cleavage was determined as 0.462.
Next, GGCCUGCAUGGUCCCAGCCUCCUCGCUGGCGCCGGCUGGGCAACAUUCCAAGGGGACCGUCCCCUCGGUAAUGGCGAAUGGGACCCA [G5U G50A]: 0.196.
Next, GGCCUGCAUGGUCCCAGCCUCCUCGCUGGCGCCGGCUGGGCAACAUUCCUAGGGGACCGUCCCCUCGGUAAUGGCGAAUGGGACCCA [G5U G50U]: 0.795; GGCCUGCAUGGUCCCAGCCUCCUCGCUGGCGCCGGCUGGGCAACAUUCCGAGGGUACCGUCCCCUCGGUAAUGGCGAAUGGGACCCA [G5U G55U]: 0.394; GGCCUGCAUGGGCCCAGCCUCCUCGCUGGCGCCGGCUGGGCAACAUUCCGAGGGGACCGUCCCCUCGGUAAUGGCGAAUGGGACCCA [G5U U12G]: 0.356.
With GGCCGACAUGGUCCCAGCCUCCUCGCUGGCGCCGGCUGGGCAACAUUCCGAGGGGACCGUCCCCUCGGUAAUGGCGAAUGGGACCCG [G6A A87G], the self-cleavage was 0.654.
Take GGCCUGCAUGGUCCCAGCCUCCUCGCUGGCGCCGGCUGGGCAACAUUCCGAGGGGACCGUCCCGUCGGUAAUGGCGAAUGGGACCCA [G5U C64G]: the self-cleavage was 0.161.
With GGCCUGCAUGGUCCCAGCCUCCUCGCUGGCGCCGGCUGGGCAACAUUCCGAGGGGACCGUCCCUUCGGUAAUGGCGAAUGGGACCCA [G5U C64U], the self-cleavage was found to be 0.499.
Next, GGCCGACUUGGUCCCAGCCUCCUCGCUGGCGCCGGCUGGGCAACAUUCCGAGGGGACCGUCCCCUCGGUAAUGGCGAAUGGGACCCA [G6A A8U]: 0.475; GGCCGACAUGGUCCCAGCCUACUCGCUGGCGCCGGCUGGGCAACAUUCCGAGGGGACCGUCCCCUCGGUAAUGGCGAAUGGGACCCA [G6A C21A]: 0.0707.
In the case of GGCCGACAUGGUCCCAGCCUCCUCGCUGGCGCCGGCUGGGCAACAUUCCGAGGGGACCGUCACCUCGGUAAUGGCGAAUGGGACCCA [G6A C62A], the self-cleavage turned out to be 0.543.
Next, GGCCGACAUGGUCCCAGCCUCCUCGCUGGCGCCGGCUGGGCAACAUUCCGAGGGGACCGUGCCCUCGGUAAUGGCGAAUGGGACCCA [G6A C61G]: 0.712; GGCCUGCAUGGUCCCAGCCUCCUCGCUGGCGCCGGCUUGGCAACAUUCCGAGGGGACCGUCCCCUCGGUAAUGGCGAAUGGGACCCA [G5U G38U]: 0.453; GGCCUGCAUGGUCCCAGCCUCCUCGCUGGCGCCGGCUAGGCAACAUUCCGAGGGGACCGUCCCCUCGGUAAUGGCGAAUGGGACCCA [G5U G38A]: 0.119.

The record behind these values is the RNAGym collection of RNA variant scans (doi:10.7554/elife.80360).
